This is an account of results in patent US20240309113A1 (SUZHOU TRANSCENTA THERAPEUTICS, published 2024).

B1: 160D10 (hybridoma antibody, mouse) (antibody, V domains shown)
VH: QVQLQQSGPELVKPGASVKISCKASGYTFTDYYINWVKQRPGQGLEWVGWIFPGSDSAYYNEKFKGKATLTVDTSSSTAYMLLSSLTSEDSAVYFCARGDRSGPFPYWGQGTLVTVSA
VL: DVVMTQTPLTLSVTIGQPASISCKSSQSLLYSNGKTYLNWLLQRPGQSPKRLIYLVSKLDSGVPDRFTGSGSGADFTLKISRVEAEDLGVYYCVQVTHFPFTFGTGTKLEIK
notes: Mouse monoclonal antibody purified from hybridoma supernatant; also called 160D10 mouse/chimeric
B2: 129C10H2C1 (hybridoma antibody 129C10, mouse) (antibody, V domains shown)
VH: QVQLQQSGPELEKPGTSVKISCEASGYTFTDYYINWVQQRPGQGLEWIGWIFPGSESAYHSEKFKAKATLTVDTSSTTAYMLLTSLTSEDSAVYFCTRGDRSGPFAYWGQGTLVTVSA
VL: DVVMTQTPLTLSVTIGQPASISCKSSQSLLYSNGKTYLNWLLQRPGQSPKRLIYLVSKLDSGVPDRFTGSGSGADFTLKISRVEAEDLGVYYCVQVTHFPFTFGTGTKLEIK
notes: Mouse monoclonal antibody purified from hybridoma supernatant; The label 129C10H2C1 is read as a subclone of 129C10; also called 129C10 mouse/chimeric
B3: 125D5G1G2 (hybridoma antibody 125D5, mouse) (antibody, V domains shown)
VH: QVQLQQSGPDLVKPGTSVKISCTASGYTFTDYYINWVKQRPGQGLEWIGWIFPGSGSPYYNENFKGRAMFTVDYSSSSAYMLLSSLTSEDSAVYFCTRGDRSGPFAYWGQGTLVTVSA
VL: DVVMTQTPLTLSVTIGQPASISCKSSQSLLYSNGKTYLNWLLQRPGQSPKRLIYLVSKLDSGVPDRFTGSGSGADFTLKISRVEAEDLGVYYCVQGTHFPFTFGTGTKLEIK
notes: Mouse monoclonal antibody purified from hybridoma supernatant; The label 125D5G1G2 is read as a subclone of 125D5; also called 125D5 mouse/chimeric
B4: OMS721 (hIgG4 kappa) (antibody, V domains shown)
VH: QVTLKESGPVLVKPTETLTLTCTVSGFSLSRGKMGVSWIRQPPGKALEWLAHIFSSDEKSYRTSLKSRLTISKDTSKNQVVLTMTNMDPVDTATYYCARIRRGGIDYWGQGTLVTVSS
VL: QPVLTQPPSLSVSPGQTASITCSGEKLGDKYAYWYQQKPGQSPVLVMYQDKQRPSGIPERFSGSNSGNTATLTISGTQAMDEADYYCQAWDSSTAVFGGGTKLTVLR
notes: Benchmark antibody with the variable regions of OMS721 (Narsoplimab) and the constant region of human IgG4; also called OMS721-analog
B5: 160D10chiIgG4 (chimeric 160D10, human IgG4 kappa) (antibody, V domains shown)
VH: B1 VH
VL: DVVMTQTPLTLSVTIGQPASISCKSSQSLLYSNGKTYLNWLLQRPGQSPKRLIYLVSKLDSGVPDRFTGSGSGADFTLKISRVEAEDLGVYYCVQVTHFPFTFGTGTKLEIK
notes: also called 160D10 mouse/chimeric
B6: 129C10chiIgG4 (chimeric 129C10, human IgG4 kappa) (antibody, V domains shown)
VH: B2 VH
VL: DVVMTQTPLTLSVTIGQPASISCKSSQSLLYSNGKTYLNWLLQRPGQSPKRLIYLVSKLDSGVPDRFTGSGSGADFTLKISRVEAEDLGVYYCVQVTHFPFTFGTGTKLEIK
notes: also called 129C10 mouse/chimeric
B7: 129C10 HdLb (antibody, human IgG4, V domains shown)
VH: QVQLVQSGAEVKKPGASVKVSCKASGYTFTDYYINWVRQAPGQGLEWMGWIFPGSESAYHSQKFQGRATLTVDTSISTAYMELSRLRSDDTAVYYCTRGDRSGPFAYWGQGTLVTVSS
VL: DVVMTQSPLSLPVTLGQPASISCKSSQSLLYSNGKTYLNWLQQRPGQSPRRLIYLVSKLDSGVPDRFSGSGSGADFTLKISRVEAEDVGVYYCVQVTHFPFTFGQGTKLEIK
notes: Humanized
B8: 129C10 HbLa (antibody, human IgG4, V domains shown)
VH: B7 VH with Q62E, Q65K, G66A
VL: B7 VL with A74T
notes: Humanized
B9: 129C10 HcLb (antibody, human IgG4, V domains shown)
VH: B7 VH with A68V, L70M
VL: B7 VL
notes: Humanized
B10: 129C10 HaLb (antibody, human IgG4, V domains shown)
VH: B7 VH with Q62E, Q65K, G66A, A68V, L70M
VL: B7 VL
notes: Humanized
B11: 129C10 HcLa (antibody, human IgG4, V domains shown)
VH: B7 VH with A68V, L70M
VL: B7 VL with A74T
notes: Humanized
B12: 129C10 HdLa (antibody, human IgG4, V domains shown)
VH: B7 VH
VL: B7 VL with A74T
notes: Humanized
B13: 129C10 HbLb (antibody, human IgG4, V domains shown)
VH: B7 VH with Q62E, Q65K, G66A
VL: B7 VL
notes: Humanized
B14: 125D5chiIgG4 (chimeric 125D5, human IgG4 kappa) (antibody, V domains shown)
VH: B3 VH
VL: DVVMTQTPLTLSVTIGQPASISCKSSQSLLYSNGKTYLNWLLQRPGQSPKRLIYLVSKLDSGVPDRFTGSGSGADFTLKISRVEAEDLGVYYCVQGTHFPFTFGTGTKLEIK
notes: also called 125D5chilgG4; 125D5 mouse/chimeric

Residue numbers refer to the chain shown, from its start.

T4 sequence (Q91WP0 20-685 limits assumed): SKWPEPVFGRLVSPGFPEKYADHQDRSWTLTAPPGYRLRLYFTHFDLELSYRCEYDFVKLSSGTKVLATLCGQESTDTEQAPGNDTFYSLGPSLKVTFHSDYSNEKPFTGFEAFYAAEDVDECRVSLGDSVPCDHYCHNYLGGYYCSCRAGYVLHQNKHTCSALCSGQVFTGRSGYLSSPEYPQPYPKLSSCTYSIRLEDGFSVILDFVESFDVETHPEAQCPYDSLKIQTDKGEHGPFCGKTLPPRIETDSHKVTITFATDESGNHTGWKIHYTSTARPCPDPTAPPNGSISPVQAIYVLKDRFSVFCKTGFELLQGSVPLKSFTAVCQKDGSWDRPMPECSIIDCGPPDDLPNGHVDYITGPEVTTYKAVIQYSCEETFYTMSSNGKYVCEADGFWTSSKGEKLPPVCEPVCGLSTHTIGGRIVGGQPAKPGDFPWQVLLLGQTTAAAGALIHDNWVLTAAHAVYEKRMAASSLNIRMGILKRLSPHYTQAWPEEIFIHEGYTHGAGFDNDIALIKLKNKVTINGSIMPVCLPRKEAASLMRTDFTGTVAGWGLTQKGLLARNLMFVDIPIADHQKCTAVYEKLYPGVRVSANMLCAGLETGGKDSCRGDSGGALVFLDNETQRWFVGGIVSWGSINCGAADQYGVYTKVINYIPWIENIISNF

The target of one experiment is T1, human MASP-2 protein (recombinant, full-length, C-terminal tag) (human, UniProt O00187 16-686).
T1 construct: The protein was secreted and purified on an anti-FLAG or anti-HIS column; also called hMASP-2; Full-length human MASP-2 protein; not shown: C-terminal HIS-tag or FLAG-tag
T1 sequence (O00187 16-686): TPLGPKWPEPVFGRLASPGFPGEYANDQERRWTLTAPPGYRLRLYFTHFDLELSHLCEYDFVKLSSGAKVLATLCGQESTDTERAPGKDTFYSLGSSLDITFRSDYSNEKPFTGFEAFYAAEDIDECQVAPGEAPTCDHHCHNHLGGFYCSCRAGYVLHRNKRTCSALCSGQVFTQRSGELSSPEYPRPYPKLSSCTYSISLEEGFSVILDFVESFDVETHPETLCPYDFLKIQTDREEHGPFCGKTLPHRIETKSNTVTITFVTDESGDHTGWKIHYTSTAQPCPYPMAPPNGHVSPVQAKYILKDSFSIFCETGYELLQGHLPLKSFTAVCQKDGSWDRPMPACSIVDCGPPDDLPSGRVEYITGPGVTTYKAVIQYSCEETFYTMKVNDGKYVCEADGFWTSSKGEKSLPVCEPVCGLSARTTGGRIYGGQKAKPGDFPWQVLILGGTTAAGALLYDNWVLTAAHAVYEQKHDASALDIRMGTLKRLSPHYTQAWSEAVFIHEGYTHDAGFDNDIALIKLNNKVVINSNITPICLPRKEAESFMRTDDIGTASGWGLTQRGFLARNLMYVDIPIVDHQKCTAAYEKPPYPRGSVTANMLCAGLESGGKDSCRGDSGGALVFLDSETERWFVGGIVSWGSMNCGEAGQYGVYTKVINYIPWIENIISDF
Nature of the experiment: BLI (ForteBio Octet RED96), antibody on Protein A biosensor, human MASP-2 in solution (100, 50, 25 nM). In general terms: Biolayer interferometry detects binding as a change in optical thickness at a sensor tip.
A word on the Kd: it is the free concentration of one partner at which half of the binding sites on the other are occupied at equilibrium, for simple one-to-one binding. For orientation: koff means the rate constant with which the complex falls apart. Broadly, the kon is the rate constant with which the complex forms. With B1, the Kd amounted to 27.8 nM, the koff is 0.001 s⁻¹ and the kon was determined as 36100 M⁻¹ s⁻¹.

For B2, the Kd was found to be 0.746 nM, the koff came out at 4.78e-05 s⁻¹ and the kon was found to be 64000 M⁻¹ s⁻¹.

For the molecule B3, the Kd amounted to 1.64 nM, the koff was found to be 9.73e-05 s⁻¹ and the kon is 59400 M⁻¹ s⁻¹.

The target of another experiment is T2, Cyno MASP2.
T2 construct: Recombinant coated protein; distinct from m29 (native MASP-2 in cynomolgus serum); also called cynomolgus MASP-2 (recombinant, generated in house)
T2 sequence (MASP-2 polypeptide, as listed by the source limits assumed): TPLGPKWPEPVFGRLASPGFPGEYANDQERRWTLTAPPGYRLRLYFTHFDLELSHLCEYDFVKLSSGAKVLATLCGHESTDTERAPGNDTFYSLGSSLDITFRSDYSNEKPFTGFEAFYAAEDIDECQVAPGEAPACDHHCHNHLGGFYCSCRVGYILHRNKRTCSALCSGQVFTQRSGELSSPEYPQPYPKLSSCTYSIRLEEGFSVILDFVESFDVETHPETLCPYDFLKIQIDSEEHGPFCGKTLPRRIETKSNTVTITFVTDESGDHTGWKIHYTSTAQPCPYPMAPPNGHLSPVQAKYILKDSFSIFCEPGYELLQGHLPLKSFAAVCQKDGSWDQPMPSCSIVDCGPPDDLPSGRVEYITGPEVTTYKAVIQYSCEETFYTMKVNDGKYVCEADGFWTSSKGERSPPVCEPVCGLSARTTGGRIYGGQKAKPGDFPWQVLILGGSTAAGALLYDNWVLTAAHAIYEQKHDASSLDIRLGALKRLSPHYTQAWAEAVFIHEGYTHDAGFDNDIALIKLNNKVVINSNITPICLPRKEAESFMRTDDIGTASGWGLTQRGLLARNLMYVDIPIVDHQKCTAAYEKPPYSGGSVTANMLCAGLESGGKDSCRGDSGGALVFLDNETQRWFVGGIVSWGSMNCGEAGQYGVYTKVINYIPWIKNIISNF
Nature of the experiment: ELISA; plate coated with cynomolgus MASP2 (1 ug/ml), serially diluted antibody, mouse anti-human IgG4 Fc HRP, OD450.
The EC50 is the midpoint of the concentration-response curve. A higher EC50 goes with a less potent agent. Molecule B4 registered an EC50 of 0.0181 µg/mL.

The target of another experiment is T3, Rat MASP2 (rat, UniProt Q9JJS8).
T3 construct: purchased protein coated on the ELISA plate at 1 ug/ml
T3 sequence (Q9JJS8 20-685 limits assumed): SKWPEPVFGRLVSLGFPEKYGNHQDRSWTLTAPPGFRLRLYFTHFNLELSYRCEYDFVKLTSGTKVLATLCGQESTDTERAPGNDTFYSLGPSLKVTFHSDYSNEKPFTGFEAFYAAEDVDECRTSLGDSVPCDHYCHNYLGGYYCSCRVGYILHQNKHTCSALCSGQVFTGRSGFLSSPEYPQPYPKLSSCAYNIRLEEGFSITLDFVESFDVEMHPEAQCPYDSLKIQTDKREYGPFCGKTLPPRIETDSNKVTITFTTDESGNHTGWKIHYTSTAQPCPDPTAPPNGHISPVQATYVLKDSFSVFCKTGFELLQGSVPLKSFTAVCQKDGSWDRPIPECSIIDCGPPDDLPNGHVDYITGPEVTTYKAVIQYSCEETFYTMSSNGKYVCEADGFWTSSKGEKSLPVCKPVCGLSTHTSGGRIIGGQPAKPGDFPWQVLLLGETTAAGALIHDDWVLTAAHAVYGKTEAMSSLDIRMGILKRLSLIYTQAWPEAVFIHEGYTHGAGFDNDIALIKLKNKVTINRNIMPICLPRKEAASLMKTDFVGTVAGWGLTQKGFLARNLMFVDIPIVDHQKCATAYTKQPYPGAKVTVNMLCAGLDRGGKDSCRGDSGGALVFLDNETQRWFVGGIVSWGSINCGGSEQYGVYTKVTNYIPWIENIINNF
Nature of the experiment: ELISA; plate coated with rat MASP2 (1 ug/ml), serially diluted antibody, mouse anti-human IgG4 Fc HRP, OD450. In general terms: In an ELISA, binding on a coated surface is turned into a signal by an enzyme label.
Regarding B4, the EC50 worked out at 12.3 µg/mL.

Another experiment addresses T4, Mouse MASP2 (mouse, UniProt Q91WP0).
T4 construct: purchased protein coated on the ELISA plate at 1 ug/ml
Nature of the experiment: ELISA; plate coated with mouse MASP2 (1 ug/ml), serially diluted antibody, mouse anti-human IgG4 Fc HRP, OD450.
Turning to B4, the midpoint of the response, the EC50, lay at 4.91 µg/mL.

The next experiment addresses T1, human MASP-2 protein (recombinant, …). Nature of the experiment: BLI (ForteBio Octet RED96), antibody on Protein A biosensor, human MASP-2 in solution (100, 50, 25 nM). This is another data set of the same source.
With B5, the Kd came to 0.984 nM, the koff amounted to 3.34e-05 s⁻¹ and the kon turned out to be 34000 M⁻¹ s⁻¹.

For B6, the Kd was 8.02 nM, the koff was found to be 0.000206 s⁻¹ and the association rate constant (kon) turned out to be 25700 M⁻¹ s⁻¹.

As to B7, the Kd was under 0.001 nM, the koff is under 1e-07 s⁻¹ and the kon was determined as 36000 M⁻¹ s⁻¹.

Turning to B8, the Kd was under 0.001 nM, the koff is under 1e-07 s⁻¹ and the kon was 32900 M⁻¹ s⁻¹.

Consider B9, for which the Kd came to 1.36 nM, the koff was 4.56e-05 s⁻¹ and the kon came to 33700 M⁻¹ s⁻¹.

Consider B10, for which the Kd worked out at 11.4 nM, the koff is 0.000291 s⁻¹ and the kon came to 25500 M⁻¹ s⁻¹.

With B11, the Kd is under 0.001 nM, the koff is under 1e-07 s⁻¹ and the kon was found to be 35200 M⁻¹ s⁻¹.

In the case of B12, the dissociation constant (Kd) turned out to be 17.1 nM, the koff was 0.000425 s⁻¹ and the kon is 24900 M⁻¹ s⁻¹.

B13: the Kd is under 0.001 nM, the koff was under 1e-07 s⁻¹ and the kon amounted to 32900 M⁻¹ s⁻¹.

Regarding B14, the Kd turned out to be 19.5 nM, the koff was 0.000499 s⁻¹ and the kon was determined as 25600 M⁻¹ s⁻¹.
